{"source": "patent US20220306751A1", "about": "(MYTHIC THERAPEUTICS, published 2022)", "molecular_target": "T1, CD123 Protein, His Tag, Acro Biosciences Cat. No. ILA-H52H6 (Homo sapiens (Human), UniProt P26951 19-305)", "T1 construct": "Bought protein; not shown: His tag", "T1 sequence": "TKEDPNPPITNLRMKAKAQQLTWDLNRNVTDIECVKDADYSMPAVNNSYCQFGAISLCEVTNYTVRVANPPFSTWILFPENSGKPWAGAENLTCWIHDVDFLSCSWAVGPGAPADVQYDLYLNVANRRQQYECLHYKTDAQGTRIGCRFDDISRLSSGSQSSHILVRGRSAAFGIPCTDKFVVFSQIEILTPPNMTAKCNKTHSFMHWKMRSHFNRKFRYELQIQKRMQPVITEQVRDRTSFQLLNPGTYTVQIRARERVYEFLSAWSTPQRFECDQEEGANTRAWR", "test": "BLI, IgG on anti-human Fc sensor, 50 nM CD123, pH 7.4 and pH 5.4", "source_text": "We selected IMGN632 (Heavy chain SEQ ID NO: 1, Light chain SEQ ID NO: 2) as a CD123-binding monoclonal antibody for pH engineering via histidine scanning. Briefly, CDRs in the heavy chain were identified using the methods described by Kabat et al (Kabat et al. (1992) Sequences of Proteins of Immunological Interest, DIANE publishing) and IMGT (Lefranc M P (1999) “The IMGT unique numbering for Immunoglobulins, T cell receptors and Ig-like domains” The Immunologist 7, 132-136), and for each CDR, residues falling under either or both Kabat and IMGT CDR definitions were called as CDR residues. To generate pH-dependent sequence variants, individual amino acid residues within the heavy chain CDRs were systematically substituted with a histidine, one at a time (MYT1252-MYT1292). In cases where the starting CDR residue was a histidine, it was mutated to an alanine. Antibody variants with only one histidine or alanine mutation in a heavy chain CDR were generated by co-transfection of Expi293 cells with a) one heavy chain sequence variant, and b) the corresponding starting ABPC light chain using methods known to the art. After allowing for four days of protein expression, cell culture supernatants were collected, quantified by SDS-PAGE analysis (FIG. 1), and the pH dependence of the variant was evaluated using biolayer interferometry (BLI) on an Octet RED 384 instrument. For constructs MYT1252, MYT1254-MYT1287, and MYT1289-1292, 104, of cell culture supernatant was diluted into 1904, of 1× PBST pH 7.4. For MYT1253 and MYT1288 254, and 504, of cell culture supernatant was diluted into 1754, and 1504, respectively. […] The resulting diluted supernatants were then captured on an anti-human Fc sensor (Forte Bio). A baseline was established using 1× PBST (50 mM Potassium Phosphate Buffer+150 mM NaCl+0.05% Tween 20) pH 7.4, and the sensor was associated with 50 nM of CD123 (CD123 Protein, His Tag, Acro Biosciences Cat. No. ILA-H52H6, Lot No. 1741d-89CF1-KB) in 1×PBST pH 7.4 for 120 sec to generate an association curve. In the dissociation phase, the antibody-antigen complex on the sensor was exposed to 1× PBST pH 7.4 for 300-600 sec. Baseline, association, and dissociation were repeated using 1×PBST pH 5.4 throughout in a separate condition.", "data": [{"binder": "MYT2773 (antibody, V domains shown, IgG) VH: QVQLVQSGAEVKKPGASVKVSCKASGYIFTSSIMHWVRQAPGQGLEWIGYIKPYNDGTKYNEKFKGRATLTSDRSTSTAYMELSSLRSEDTAVYYCAREGGNDYYDTMDYWGQGTLVTVSS VL: DIQMTQSPSSLSASVGDRVTITCHASQDINSYLSWFQQKPGKAPKTLIYRVNRLVDGVPSRFSGSGSGNDYTLTISSLQPEDFATYYCLQYDAFPYTFGQGTKVEIK", "values": [{"measurement": "binding result", "result": "binds"}]}, {"binder": "MYT2774 (antibody, V domains shown, IgG) VH: QVQLVQSGAEVKKPGASVKVSCKASGYIFTSSIMHWVRQAPGQGLEWIGYIKPYNDGTKYNEKFKGRATLTSDRSTSTAYMELSSLRSEDTAVYYCAREGGNDYYDTMDYWGQGTLVTVSS VL: DIQMTQSPSSLSASVGDRVTITCRHSQDINSYLSWFQQKPGKAPKTLIYRVNRLVDGVPSRFSGSGSGNDYTLTISSLQPEDFATYYCLQYDAFPYTFGQGTKVEIK", "values": [{"measurement": "binding result", "result": "binds"}]}, {"binder": "MYT2775 (antibody, V domains shown, IgG) VH: QVQLVQSGAEVKKPGASVKVSCKASGYIFTSSIMHWVRQAPGQGLEWIGYIKPYNDGTKYNEKFKGRATLTSDRSTSTAYMELSSLRSEDTAVYYCAREGGNDYYDTMDYWGQGTLVTVSS VL: DIQMTQSPSSLSASVGDRVTITCRAHQDINSYLSWFQQKPGKAPKTLIYRVNRLVDGVPSRFSGSGSGNDYTLTISSLQPEDFATYYCLQYDAFPYTFGQGTKVEIK", "values": [{"measurement": "binding result", "result": "binds"}]}, {"binder": "MYT2776 (antibody, V domains shown, IgG) VH: QVQLVQSGAEVKKPGASVKVSCKASGYIFTSSIMHWVRQAPGQGLEWIGYIKPYNDGTKYNEKFKGRATLTSDRSTSTAYMELSSLRSEDTAVYYCAREGGNDYYDTMDYWGQGTLVTVSS VL: DIQMTQSPSSLSASVGDRVTITCRASHDINSYLSWFQQKPGKAPKTLIYRVNRLVDGVPSRFSGSGSGNDYTLTISSLQPEDFATYYCLQYDAFPYTFGQGTKVEIK", "values": [{"measurement": "binding result", "result": "binds"}]}, {"binder": "MYT2777 (antibody, V domains shown, IgG) VH: QVQLVQSGAEVKKPGASVKVSCKASGYIFTSSIMHWVRQAPGQGLEWIGYIKPYNDGTKYNEKFKGRATLTSDRSTSTAYMELSSLRSEDTAVYYCAREGGNDYYDTMDYWGQGTLVTVSS VL: DIQMTQSPSSLSASVGDRVTITCRASQHINSYLSWFQQKPGKAPKTLIYRVNRLVDGVPSRFSGSGSGNDYTLTISSLQPEDFATYYCLQYDAFPYTFGQGTKVEIK", "values": [{"measurement": "binding result", "result": "binds"}]}, {"binder": "MYT2778 (antibody, V domains shown, IgG) VH: QVQLVQSGAEVKKPGASVKVSCKASGYIFTSSIMHWVRQAPGQGLEWIGYIKPYNDGTKYNEKFKGRATLTSDRSTSTAYMELSSLRSEDTAVYYCAREGGNDYYDTMDYWGQGTLVTVSS VL: DIQMTQSPSSLSASVGDRVTITCRASQDHNSYLSWFQQKPGKAPKTLIYRVNRLVDGVPSRFSGSGSGNDYTLTISSLQPEDFATYYCLQYDAFPYTFGQGTKVEIK", "values": [{"measurement": "binding result", "result": "binds"}]}, {"binder": "MYT2779 (antibody, V domains shown, IgG) VH: QVQLVQSGAEVKKPGASVKVSCKASGYIFTSSIMHWVRQAPGQGLEWIGYIKPYNDGTKYNEKFKGRATLTSDRSTSTAYMELSSLRSEDTAVYYCAREGGNDYYDTMDYWGQGTLVTVSS VL: DIQMTQSPSSLSASVGDRVTITCRASQDIHSYLSWFQQKPGKAPKTLIYRVNRLVDGVPSRFSGSGSGNDYTLTISSLQPEDFATYYCLQYDAFPYTFGQGTKVEIK", "values": [{"measurement": "binding result", "result": "binds"}]}, {"binder": "MYT2780 (antibody, V domains shown, IgG) VH: QVQLVQSGAEVKKPGASVKVSCKASGYIFTSSIMHWVRQAPGQGLEWIGYIKPYNDGTKYNEKFKGRATLTSDRSTSTAYMELSSLRSEDTAVYYCAREGGNDYYDTMDYWGQGTLVTVSS VL: DIQMTQSPSSLSASVGDRVTITCRASQDINHYLSWFQQKPGKAPKTLIYRVNRLVDGVPSRFSGSGSGNDYTLTISSLQPEDFATYYCLQYDAFPYTFGQGTKVEIK", "values": [{"measurement": "binding result", "result": "binds"}]}, {"binder": "MYT2781 (antibody, V domains shown, IgG) VH: QVQLVQSGAEVKKPGASVKVSCKASGYIFTSSIMHWVRQAPGQGLEWIGYIKPYNDGTKYNEKFKGRATLTSDRSTSTAYMELSSLRSEDTAVYYCAREGGNDYYDTMDYWGQGTLVTVSS VL: DIQMTQSPSSLSASVGDRVTITCRASQDINSHLSWFQQKPGKAPKTLIYRVNRLVDGVPSRFSGSGSGNDYTLTISSLQPEDFATYYCLQYDAFPYTFGQGTKVEIK", "values": [{"measurement": "binding result", "result": "binds"}]}, {"binder": "MYT2782 (antibody, V domains shown, IgG) VH: QVQLVQSGAEVKKPGASVKVSCKASGYIFTSSIMHWVRQAPGQGLEWIGYIKPYNDGTKYNEKFKGRATLTSDRSTSTAYMELSSLRSEDTAVYYCAREGGNDYYDTMDYWGQGTLVTVSS VL: DIQMTQSPSSLSASVGDRVTITCRASQDINSYHSWFQQKPGKAPKTLIYRVNRLVDGVPSRFSGSGSGNDYTLTISSLQPEDFATYYCLQYDAFPYTFGQGTKVEIK", "values": [{"measurement": "binding result", "result": "binds"}]}, {"binder": "MYT2783 (antibody, V domains shown, IgG) VH: QVQLVQSGAEVKKPGASVKVSCKASGYIFTSSIMHWVRQAPGQGLEWIGYIKPYNDGTKYNEKFKGRATLTSDRSTSTAYMELSSLRSEDTAVYYCAREGGNDYYDTMDYWGQGTLVTVSS VL: DIQMTQSPSSLSASVGDRVTITCRASQDINSYLHWFQQKPGKAPKTLIYRVNRLVDGVPSRFSGSGSGNDYTLTISSLQPEDFATYYCLQYDAFPYTFGQGTKVEIK", "values": [{"measurement": "binding result", "result": "binds"}]}, {"binder": "MYT2784 (antibody, V domains shown, IgG) VH: QVQLVQSGAEVKKPGASVKVSCKASGYIFTSSIMHWVRQAPGQGLEWIGYIKPYNDGTKYNEKFKGRATLTSDRSTSTAYMELSSLRSEDTAVYYCAREGGNDYYDTMDYWGQGTLVTVSS VL: DIQMTQSPSSLSASVGDRVTITCRASQDINSYLSWFQQKPGKAPKTLIYHVNRLVDGVPSRFSGSGSGNDYTLTISSLQPEDFATYYCLQYDAFPYTFGQGTKVEIK", "values": [{"measurement": "binding result", "result": "binds"}]}, {"binder": "MYT2785 (antibody, V domains shown, IgG) VH: QVQLVQSGAEVKKPGASVKVSCKASGYIFTSSIMHWVRQAPGQGLEWIGYIKPYNDGTKYNEKFKGRATLTSDRSTSTAYMELSSLRSEDTAVYYCAREGGNDYYDTMDYWGQGTLVTVSS VL: DIQMTQSPSSLSASVGDRVTITCRASQDINSYLSWFQQKPGKAPKTLIYRHNRLVDGVPSRFSGSGSGNDYTLTISSLQPEDFATYYCLQYDAFPYTFGQGTKVEIK", "values": [{"measurement": "binding result", "result": "binds"}]}, {"binder": "MYT2786 (antibody, V domains shown, IgG) VH: QVQLVQSGAEVKKPGASVKVSCKASGYIFTSSIMHWVRQAPGQGLEWIGYIKPYNDGTKYNEKFKGRATLTSDRSTSTAYMELSSLRSEDTAVYYCAREGGNDYYDTMDYWGQGTLVTVSS VL: DIQMTQSPSSLSASVGDRVTITCRASQDINSYLSWFQQKPGKAPKTLIYRVHRLVDGVPSRFSGSGSGNDYTLTISSLQPEDFATYYCLQYDAFPYTFGQGTKVEIK", "values": [{"measurement": "binding result", "result": "binds"}]}, {"binder": "MYT2787 (antibody, V domains shown, IgG) VH: QVQLVQSGAEVKKPGASVKVSCKASGYIFTSSIMHWVRQAPGQGLEWIGYIKPYNDGTKYNEKFKGRATLTSDRSTSTAYMELSSLRSEDTAVYYCAREGGNDYYDTMDYWGQGTLVTVSS VL: DIQMTQSPSSLSASVGDRVTITCRASQDINSYLSWFQQKPGKAPKTLIYRVNHLVDGVPSRFSGSGSGNDYTLTISSLQPEDFATYYCLQYDAFPYTFGQGTKVEIK", "values": [{"measurement": "binding result", "result": "binds"}]}, {"binder": "MYT2788 (antibody, V domains shown, IgG) VH: QVQLVQSGAEVKKPGASVKVSCKASGYIFTSSIMHWVRQAPGQGLEWIGYIKPYNDGTKYNEKFKGRATLTSDRSTSTAYMELSSLRSEDTAVYYCAREGGNDYYDTMDYWGQGTLVTVSS VL: DIQMTQSPSSLSASVGDRVTITCRASQDINSYLSWFQQKPGKAPKTLIYRVNRHVDGVPSRFSGSGSGNDYTLTISSLQPEDFATYYCLQYDAFPYTFGQGTKVEIK", "values": [{"measurement": "binding result", "result": "binds"}]}, {"binder": "MYT2789 (antibody, V domains shown, IgG) VH: QVQLVQSGAEVKKPGASVKVSCKASGYIFTSSIMHWVRQAPGQGLEWIGYIKPYNDGTKYNEKFKGRATLTSDRSTSTAYMELSSLRSEDTAVYYCAREGGNDYYDTMDYWGQGTLVTVSS VL: DIQMTQSPSSLSASVGDRVTITCRASQDINSYLSWFQQKPGKAPKTLIYRVNRLHDGVPSRFSGSGSGNDYTLTISSLQPEDFATYYCLQYDAFPYTFGQGTKVEIK", "values": [{"measurement": "binding result", "result": "binds"}]}]}
